# Source: patent publication US20060257407A1 (Janssen / Centocor, published 2006)
# Changes are numbered by the printed parent chain. Like-named read-outs stand apart in the source and are kept apart here.
# B1: AME-20b (antibody, V domains shown)
# VH: EVQLVESGGGLVQPGGSLRLSCAASGFQFSSFAMSWVRQAPGKGLEWVAKISPGGSYTYYSDTVTGRFTISRDNAKNSLYLQMNSLRAEDTAVYYCARQLWGYYALDIWGQGTTVTVSS
# VL: EIVLTQSPATLSLSPGERATLSCSASISVSYMYWYQQKPGQAPRLLIYDMSNLASGIPARFSGSGSGTDFTLTISSLEPEDFAVYYCMQWSGYPYTFGGGTKVEIK
# notes: Tested as IgG; also called 140
# B2: AME-23a (antibody, V domains shown)
# VH: B1 VH with I108F
# VL: B1 VL with I27Y
# notes: Tested as IgG; also called 143
# B3: AME-A9 (antibody, V domains shown)
# VH: B1 VH with Q28T, P53S, S61P, I108Y
# VL: B1 VL with I27S, M50T, M88S
# notes: Human engineered monoclonal antibody, detected with anti-human IgG; also called 104
# B4: AME-16 (antibody, V domains shown)
# VH: B1 VH with Q28T, S61P, I108Y
# VL: B1 VL with I27S, M50T, M88S
# notes: Tested as IgG; also called AME-A16; 106
# B5: AME-18a (antibody, V domains shown)
# VH: B1 VH with S31P, Y57W
# VL: B1 VL with I27S, M50F
# notes: Tested as IgG; also called 130
# B6: AME-22a (antibody, V domains shown)
# VH: B1 VH with S31P, Y57W, S61P, V64D, I108F
# VL: B1 VL with I27Y, M50F
# notes: Tested as IgG; also called 150
# B7: AME-19a (antibody, V domains shown)
# VH: B1 VH with Q28T, S31P, Y57W
# VL: B1 VL
# notes: Tested as IgG; also called 136; human engineered anti-IL-6 (clone AME-19a) antibody
# B8: chimeric anti-IL-6 antibody CNTO 328 (antibody, INN chains, looked up, V domains shown)
# VH: EVQLVESGGKLLKPGGSLKLSCAASGFTFSSFAMSWFRQSPEKRLEWVAEISSGGSYTYYPDTVTGRFTISRDNAKNTLYLEMSSLRSEDTAMYYCARGLWGYYALDYWGQGTSVTVSS
# VL: QIVLIQSPAIMSASPGEKVTMTCSASSSVSYMYWYQQKPGSSPRLLIYDTSNLASGVPVRFSGSGSGTSYSLTISRMEAEDAATYYCQQWSGYPYTFGGGTKLEIK
# modifications: biotinylated in competition ELISA
# Experiments:
# [1] = biological target: T1, IL-6/sIL-6R complex (human, UniProt P08887 20-358, limits assumed); experiment: EIA: sIL-6R coated, 200 ng/ml human IL-6, antibody dilutions from 10 ug/ml, anti-human IgG-HRP
# T1 construct: Formed on the plate: sIL-6R coated at 10 ug/ml, then human IL-6 added at 200 ng/ml; also called sIL-6/sIL-6R complex; IL-6/IL-6R complex
# T1 sequence (chain, as listed by the source limits assumed, chain 1 of 2): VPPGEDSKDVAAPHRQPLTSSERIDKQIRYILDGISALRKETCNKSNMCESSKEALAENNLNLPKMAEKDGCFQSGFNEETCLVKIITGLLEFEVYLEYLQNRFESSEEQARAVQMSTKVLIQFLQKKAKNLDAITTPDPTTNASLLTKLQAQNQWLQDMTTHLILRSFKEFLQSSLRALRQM
# T1 sequence (P08887 20-358 limits assumed, chain 2 of 2): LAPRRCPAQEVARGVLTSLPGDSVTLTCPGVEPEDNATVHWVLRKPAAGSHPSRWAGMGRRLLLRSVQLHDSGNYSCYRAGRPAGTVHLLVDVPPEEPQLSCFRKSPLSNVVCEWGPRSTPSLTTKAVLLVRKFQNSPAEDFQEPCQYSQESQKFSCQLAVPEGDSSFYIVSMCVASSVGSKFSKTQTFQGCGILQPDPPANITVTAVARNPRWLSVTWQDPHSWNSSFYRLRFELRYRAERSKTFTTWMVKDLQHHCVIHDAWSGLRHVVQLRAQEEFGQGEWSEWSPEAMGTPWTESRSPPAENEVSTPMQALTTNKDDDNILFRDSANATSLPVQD
# Method: Costar EIA plates (Corning/Costar, Acton, Mass.) (Catalog # 9018) were coated with sIL-6R (10 μg/ml in PBS, 100 μl/well) overnight at 4° C. The plates were washed with 0.15M saline containing 0.02% (v/v) Tween 20 and wells were blocked with 1% (w/v) BSA in PBS, 200 μl/well for one hour at room temperature. The wells were washed again then in the sequential format incubated with 200 ng/ml human IL-6 (100 μl/well) in PBS for one hour at room temperature. Antibody was added to all wells in 10-fold serial dilutions from a starting concentration of 10 μg/ml in 100 μl/well for one hour at room temperature. After washing, the wells were incubated with goat anti-human IgG (H+L)-HRP-linked, (10 μg/ml in PBS) for 30 minutes at room temperature. The wells were washed and 100 μl/well of citrate-phosphate substrates solution (0.1M Citric Acid and 0.2M Sodium Phosphate, 0.01% H₂O₂ and 1 mg/ml OPD) was added for 15 minutes at room temperature. The reaction was stopped by addition of 25 μl/well of 4N sulfuric acid and the OD₄₉₀ was read via an automated ELISA plate reader (Molecular Devices Spectromax Plus, Sunnyvale, Calif.).
# In addition, AME-A9, AME-A16, AME-18a, AME-20b, AME-22a, and AME-23a can detect IL-6 bound to sgp80 (sIL-6R) in a dose dependent manner using EIA. […] However, preincubation of IL-6 and any of these anti hIL-6 monoclonal antibodies precludes the ability of sIL-6R to bind IL-6.
# [2] = biological target: T2, recombinant human IL-6 (human, UniProt P05231 30-212); experiment: calculated, KinExA 3000
# T2 construct: Bought from R&D Systems (206-IL-010); Biotinylated or coupled to beads in some assays; also called hIL-6; rhIL-6
# T2 sequence (P05231 30-212 limits assumed): as the sequence (chain, as listed by the source limits assumed, chain 1 of 2) above
# Method: (§1) The KinExA 3000 instrument, manufactured by Sapidyne, was used to measure binding kinetics. Briefly, human IL-6 was covalently coupled to alzactone beads and the binding of free IgG to the beads was detected on the instrument. […] For example, the chimeric anti-IL-6 antibody was used at a constant concentration of 5 pM and individual tubes were incubated with 0-200 pM of IL-6. Incubations for the other IgGs were set in a similar manner. After the incubation, free IgG in each equilibrated sample was determined on the KinExA 3000 instrument according to the manufacturer's instructions. KD values were determined by the KinExA 3000 software using the KinExA 3000 instrument, as described in more detail below.
# (§2) To measure kₒₙ, individual IgGs at 200 pM were mixed with 100-200 pM of human IL-6 and the unbound IgG was detected by binding to human IL-6 covalently coupled to alzactone beads on the KinExA 3000 instrument. A series of measurements were taken over time. The resulting data was used to calculate the kₒₙ with the KinExA 3000 software. koff was calculated by using the formula KD=koff/kₒₙ.
# [3] = biological target: T2, recombinant human IL-6; experiment: calculated from KD = koff/kon, KinExA 3000
# Method: as §1, §2
# [4] = biological target: T2, recombinant human IL-6; experiment: KinExA 3000, equilibrium in solution, IgG at 1 pM with serially diluted human IL-6, 20 C
# Method: as §1
# [5] = biological target: T2, recombinant human IL-6; experiment: KinExA 3000
# Method: as §1, §2
# [6] = biological target: T2, recombinant human IL-6; experiment: KinExA 3000, IgG at 200 pM mixed with 100-200 pM human IL-6, free IgG over time
# Method: as §2
# [7] = biological target: T2, recombinant human IL-6; experiment: ELISA: IgG dilutions captured on goat anti-human kappa, biotinylated IL-6 at 200 ng/ml, NeutrAvidin-alkaline phosphatase, O.D. 560 after 15 min
# Method: The ELISA generally used Costar 3366 microtiter plates coated with a goat anti-human kappa antibody. Dilutions of Fab (or IgG) were incubated in the coated wells for 1 hr at 22° C. The wells were then washed with PBS, 0.1% Tween 20 and biotinylated IL-6 at 200 ng/ml was added for 1 hour. After washing, an alkaline phosphatase conjugate of NeutrAvidin was added and incubated for 1 hour at 22° C. A colorimetric substrate was added after extensive washing and the bound IL-6 was determined. A variation of this ELISA included an extended wash step in a beaker of PBS, 0.01% BSA at 37° C. after the biotinylated IL-6 incubation, e.g., an 18 hour extended wash step.
# [8] = biological target: T2, recombinant human IL-6; experiment: KinExA 3000, equilibrium in solution, IgG at 0.5 pM with serially diluted human IL-6, 20 C
# Method: as §1
# [9] = biological target: T2, recombinant human IL-6; experiment: cell-based or functional assay
# [10] = biological target: T2, recombinant human IL-6; experiment: cell-based or functional assay; remark: listed apart in the source
# [11] = biological target: IL-6/sIL-6R complex (human) (UniProt P08887); experiment: ELISA: sIL-6R coated at 10 µg/ml, human IL-6 added at 200 ng/ml, antibody dilutions, detection with HRP-anti-human IgG, OD490
# Chain of IL-6/sIL-6R complex (human) (chain, as listed by the source limits assumed, chain 1 of 2): as above
# Chain of IL-6/sIL-6R complex (human) (P08887 20-358 limits assumed, chain 2 of 2): as the sequence (P08887 20-358 limits assumed, chain 2 of 2) above
# [12] = biological target: recombinant human IL-6 (human) (UniProt P05231); experiment: calculated from KD = koff/kon, KinExA 3000
# Chain of recombinant human IL-6 (human) (P05231 30-212 limits assumed): as the sequence (chain, as listed by the source limits assumed, chain 1 of 2) above
# [13] = biological target: recombinant human IL-6 (human) (UniProt P05231); experiment: KinExA 3000, equilibrium in solution, IgG at 5 pM with serially diluted human IL-6, 20 C
# [14] = biological target: recombinant human IL-6 (human) (UniProt P05231); experiment: ELISA: IgG dilutions captured on goat anti-human kappa, biotinylated IL-6 at 200 ng/ml, NeutrAvidin-alkaline phosphatase, O.D. 560 after 15 min
# [15] = biological target: recombinant human IL-6 (human) (UniProt P05231); experiment: cell-based or functional assay
# [16] = biological target: recombinant human IL-6 (human) (UniProt P05231); experiment: calculated, KinExA 3000
# [17] = biological target: recombinant human IL-6 (human) (UniProt P05231); experiment: cell-based or functional assay; remark: listed apart in the source
# [18] = biological target: recombinant human IL-6 (human) (UniProt P05231); experiment: KinExA 3000, IgG at 200 pM mixed with 100-200 pM human IL-6, free IgG over time
# [19] = biological target: recombinant human IL-6 (human) (UniProt P05231); experiment: KinExA 3000
Binder,binding result [1],Improvement Ratio of koff (against chimeric antibody) [2],koff [3],Kd [4],Improvement Ratio of KD (as compared to chimeric ab) [5],Improvement Ratio of kon (against chimeric antibody) [5],kon [6],EC50 (read off the curve) [7],also measured
B1,binds,3.5 fold,3.7e-06 s⁻¹,0.78 pM,3.8 fold,1 fold,4.7e+06 M⁻¹ s⁻¹,–,–
B2,binds,295 fold,4.4e-08 s⁻¹,0.006 pM,500 fold,1.6 fold,7.4e+06 M⁻¹ s⁻¹,–,–
B3,binds,–,–,–,–,–,–,~0.09 µg/mL,–
B4,binds,15.7 fold,8.3e-07 s⁻¹,0.83 pM,3.6 fold,0.22 fold,1e+06 M⁻¹ s⁻¹,~0.07 µg/mL,–
B5,binds,5.4 fold,2.4e-06 s⁻¹,–,25 fold,4.4 fold,2e+07 M⁻¹ s⁻¹,~0.09 µg/mL,Kd [8]: 0.12 pM
B6,–,11.8 fold,1.1e-06 s⁻¹,0.18 pM,16.7 fold,1.3 fold,6e+06 M⁻¹ s⁻¹,–,–
B7,–,65 fold,2e-07 s⁻¹,–,81.1 fold,1.2 fold,5.5e+06 M⁻¹ s⁻¹,–,"Kd [8]: 0.037 pM; EC50, growth of IL-6 dependent 7TD1 cells with 500 pg/ml human IL-6 (ATPlite) [9]: 2.7 pM; improvement of EC50 against CNTO328, 7TD1 cell assay [9]: 10 fold; EC50, growth of IL-6 dependent 7TD1 cells with 500 pg/ml human IL-6 (ATPlite) [10]: 0.00041 µg/mL"
B8,–,–,–,–,–,–,–,–,"EC50 (read off the curve) [11]: 0.01 µg/mL; koff [12]: 1.3e-05 s⁻¹; Kd [13]: 3 pM; EC50 (read off the curve) [14]: 0.1 µg/mL; EC50, growth of IL-6 dependent 7TD1 cells with 500 pg/ml human IL-6 (ATPlite) [15]: 0.00409 µg/mL; Improvement Ratio of koff (against chimeric antibody) [16]: 1 fold; EC50, growth of IL-6 dependent 7TD1 cells with 500 pg/ml human IL-6 (ATPlite) [17]: 27 pM; kon [18]: 4.4e+06 M⁻¹ s⁻¹; Improvement Ratio of KD (as compared to chimeric ab) [19]: 1 fold; Improvement Ratio of kon (against chimeric antibody) [19]: 1 fold"
